Results taken from article doi:10.1101/2021.09.12.459413.

Molecular target: freshly isolated human LDL (human)
Assay: ELISA

- Kd: 15 nM
B1: rabbit SAMD1 fragment from a.a. 238 to the C-terminus end at a.a. 550 (domain or fragment)
chain: QQPQPPPEGGAARAGGPARPVSLREVVRYLGGSSGAGGRLTRGRVQGLLEEEAAARGRLERTRLGALALPRGDRPGRAPPAASARAARNKRAGEERVLEKEEEEEEEEDDEDDDDDVVSEGSEVPESDRPAGAQHHQLNGGERGPQTAKERAKEWSLCGPHPGQEEGRGPAAGSGTRQVFSMAALSKEGGSASSTTGPDSPSPVPLPPGKPALPGADGTPFGCPAGRKEKPADPVEWTVMDVVEYFTEAGFPEQATAFQEQEIDGKSLLLMQRTDVLTGLSIRLGPALKIYEHHIKVLQQGHFEDDDPEGFLG
